According to patent US8841085 (KOREA INSTITUTE OF SCIENCE AND TECHNOLOGY, dated 2014):
Where two headings read alike, the source gives them in different places.

Legend:
Experiment in all cases: cell-based or functional assay
[1] = molecular target: MMP-3
[2] = molecular target: MMP-9
[3] = molecular target: MMP-13
[4] = molecular target: MMP-2
[5] = molecular target: T1, MMP-7
T1 sequence (P09237 95-267, species assumed, looked up): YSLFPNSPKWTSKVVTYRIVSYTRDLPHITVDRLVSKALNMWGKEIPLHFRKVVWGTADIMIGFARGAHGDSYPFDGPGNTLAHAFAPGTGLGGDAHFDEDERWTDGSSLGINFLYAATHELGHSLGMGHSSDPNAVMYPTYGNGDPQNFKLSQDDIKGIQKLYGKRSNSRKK

[6] = molecular target: MMP-3; remark: listed apart in the source
[7] = molecular target: MMP-9; remark: listed apart in the source
[8] = molecular target: MMP-13; remark: listed apart in the source
[9] = molecular target: MMP-2; remark: listed apart in the source
[10] = molecular target: T1, MMP-7; remark: listed apart in the source
[11] = molecular target: MMP-3; remark: listed apart in the source
[12] = molecular target: MMP-9; remark: listed apart in the source
[13] = molecular target: MMP-13; remark: listed apart in the source
[14] = molecular target: MMP-2; remark: listed apart in the source
[15] = molecular target: T1, MMP-7; remark: listed apart in the source
[16] = molecular target: MMP-3; remark: listed apart in the source
[17] = molecular target: MMP-9; remark: listed apart in the source
[18] = molecular target: MMP-13; remark: listed apart in the source
[19] = molecular target: MMP-2; remark: listed apart in the source
[20] = molecular target: T1, MMP-7; remark: listed apart in the source

B1: PN2 (P2: Cy5.5-Gly-Val-Pro-Leu-Ser-Leu-Thr-Met-Gly-Lys(BHQ3)-Gly-Gly-COOH conjugated to glycol chitosan-bile acid nanoparticle) (peptide)
peptide: {Cy5.5}-GVPLSLTMGK(BHQ3)GG-{glycol chitosan‑cholanic acid nanoparticle}
modifications: not fully specified; printed as Cy5.5-Gly-Val-Pro-Leu-Ser-Leu-Thr-Met-Gly-Lys(BHQ3)-Gly-Gly-COOH
For B1, the “fluorescent intensity (FI) recovered after 60 minutes, fold” value (from here on “fluorescent intensity … fold”) [1] was 3.6 times, the “fluorescent intensity … fold” value [2] was 1.3 times and the “fluorescent intensity … fold” value [3] was 4.8 times. The “fluorescent intensity … fold” value [4] was 1.8 times, the “fluorescent intensity … fold” value [5] was 3.9 times and the “fluorescent intensity (FI) at 0 min” value [6] was 336. For the same binder, the “fluorescent intensity (FI) at 10 min” value [6] was 226, the “fluorescent intensity (FI) at 20 min” value [6] was 408 and the “fluorescent intensity (FI) at 30 min” value [6] was 843. The “fluorescent intensity (FI) at 40 min” value [6] was 946, the “fluorescent intensity (FI) at 50 min” value [6] was 1070 and the “fluorescent intensity (FI) at 60 min” value [6] was 1230. For the same binder, the “fluorescent intensity (FI) at 0 min” value [7] was 182, the “fluorescent intensity (FI) at 10 min” value [7] was 186 and the “fluorescent intensity (FI) at 20 min” value [7] was 186. The “fluorescent intensity (FI) at 30 min” value [7] was 187, the “fluorescent intensity (FI) at 40 min” value [7] was 239 and the “fluorescent intensity (FI) at 50 min” value [7] was 233. For the same binder, the “fluorescent intensity (FI) at 60 min” value [7] was 248, the “fluorescent intensity (FI) at 0 min” value [8] was 287 and the “fluorescent intensity (FI) at 10 min” value [8] was 724. For the same binder, the “fluorescent intensity (FI) at 20 min” value [8] was 1060, the “fluorescent intensity (FI) at 30 min” value [8] was 1230 and the “fluorescent intensity (FI) at 40 min” value [8] was 1350. The “fluorescent intensity (FI) at 50 min” value [8] was 1360, the “fluorescent intensity (FI) at 60 min” value [8] was 1370 and the “fluorescent intensity (FI) at 0 min” value [9] was 271. The “fluorescent intensity (FI) at 10 min” value [9] was 245, the “fluorescent intensity (FI) at 20 min” value [9] was 350 and the “fluorescent intensity (FI) at 30 min” value [9] was 280. The “fluorescent intensity (FI) at 40 min” value [9] was 335, the “fluorescent intensity (FI) at 50 min” value [9] was 426 and the “fluorescent intensity (FI) at 60 min” value [9] was 494. The “fluorescent intensity (FI) at 0 min” value [10] was 328, the “fluorescent intensity (FI) at 10 min” value [10] was 653 and the “fluorescent intensity (FI) at 20 min” value [10] was 993. The “fluorescent intensity (FI) at 30 min” value [10] was 1160, the “fluorescent intensity (FI) at 40 min” value [10] was 1250 and the “fluorescent intensity (FI) at 50 min” value [10] was 1310. The “fluorescent intensity (FI) at 60 min” value [10] was 1280.

B2: PN1 (P1: Cy5.5-Gly-Pro-Leu-Gly-Val-Arg-Gly-Lys(BHQ3)-Gly-Gly-COOH conjugated to glycol chitosan-bile acid nanoparticle) (peptide)
peptide: {Cy5.5}-GPLGVRGK(BHQ3)GG-{glycol chitosan‑cholanic acid nanoparticle}
modifications: not fully specified; printed as Cy5.5-Gly-Pro-Leu-Gly-Val-Arg-Gly-Lys(BHQ3)-Gly-Gly-COOH
In the case of B2, the “fluorescent intensity (FI) at 0 min” value [11] is reported as 307, the “fluorescent intensity (FI) at 10 min” value [11] is reported as 285 and the “fluorescent intensity (FI) at 20 min” value [11] is reported as 363. The “fluorescent intensity (FI) at 30 min” value [11] was 421, the “fluorescent intensity (FI) at 40 min” value [11] was 506 and the “fluorescent intensity (FI) at 50 min” value [11] was 537. For the same binder, the “fluorescent intensity (FI) at 60 min” value [11] was 630, the “fluorescent intensity (FI) at 0 min” value [12] was 350 and the “fluorescent intensity (FI) at 10 min” value [12] was 680. For the same binder, the “fluorescent intensity (FI) at 20 min” value [12] was 1350, the “fluorescent intensity (FI) at 30 min” value [12] was 2010 and the “fluorescent intensity (FI) at 40 min” value [12] was 2250. The “fluorescent intensity (FI) at 50 min” value [12] was 2850, the “fluorescent intensity (FI) at 60 min” value [12] was 3220 and the “fluorescent intensity (FI) at 0 min” value [13] was 665. The “fluorescent intensity (FI) at 10 min” value [13] was 1930, the “fluorescent intensity (FI) at 20 min” value [13] was 3930 and the “fluorescent intensity (FI) at 30 min” value [13] was 5290. The “fluorescent intensity (FI) at 40 min” value [13] was 6510, the “fluorescent intensity (FI) at 50 min” value [13] was 7610 and the “fluorescent intensity (FI) at 60 min” value [13] was 8180. The “fluorescent intensity (FI) at 0 min” value [14] was 379, the “fluorescent intensity (FI) at 10 min” value [14] was 952 and the “fluorescent intensity (FI) at 20 min” value [14] was 1720. The “fluorescent intensity (FI) at 30 min” value [14] was 2390, the “fluorescent intensity (FI) at 40 min” value [14] was 2920 and the “fluorescent intensity (FI) at 50 min” value [14] was 3210. For the same binder, the “fluorescent intensity (FI) at 60 min” value [14] was 3660, the “fluorescent intensity (FI) at 0 min” value [15] was 278 and the “fluorescent intensity (FI) at 10 min” value [15] was 288. For the same binder, the “fluorescent intensity (FI) at 20 min” value [15] was 287, the “fluorescent intensity (FI) at 30 min” value [15] was 290 and the “fluorescent intensity (FI) at 40 min” value [15] was 294. The “fluorescent intensity (FI) at 50 min” value [15] was 300, the “fluorescent intensity (FI) at 60 min” value [15] was 302 and the “fluorescent intensity … fold” value [1] was 2 times. For the same binder, the “fluorescent intensity … fold” value [2] was 9.2 times, the “fluorescent intensity … fold” value [3] was 12.3 times and the “fluorescent intensity … fold” value [4] was 9.7 times. The “fluorescent intensity … fold” value [5] was 1 times.

B3: PN3 (P3: Cy5.5-Gly-Pro-Leu-Gly-Met-Arg-Gly-Leu-Gly-Lys(BHQ3)-Gly-Gly-COOH conjugated to glycol chitosan-bile acid nanoparticle) (peptide)
peptide: {Cy5.5}-GPLGMRGLGK(BHQ3)GG-{glycol chitosan‑cholanic acid nanoparticle}
modifications: not fully specified; printed as Cy5.5-Gly-Pro-Leu-Gly-Met-Arg-Gly-Leu-Gly-Lys(BHQ3)-Gly-Gly-COOH
B3 was tested, and the “fluorescent intensity (FI) at 0 min” value [16] was 102, the “fluorescent intensity (FI) at 10 min” value [16] was 128 and the “fluorescent intensity (FI) at 20 min” value [16] was 143. For the same binder, the “fluorescent intensity (FI) at 30 min” value [16] was 174, the “fluorescent intensity (FI) at 40 min” value [16] was 200 and the “fluorescent intensity (FI) at 50 min” value [16] was 217. The “fluorescent intensity (FI) at 60 min” value [16] was 249, the “fluorescent intensity (FI) at 0 min” value [17] was 101 and the “fluorescent intensity (FI) at 10 min” value [17] was 106. For the same binder, the “fluorescent intensity (FI) at 20 min” value [17] was 109, the “fluorescent intensity (FI) at 30 min” value [17] was 114 and the “fluorescent intensity (FI) at 40 min” value [17] was 128. The “fluorescent intensity (FI) at 50 min” value [17] was 130, the “fluorescent intensity (FI) at 60 min” value [17] was 133 and the “fluorescent intensity (FI) at 0 min” value [18] was 101. For the same binder, the “fluorescent intensity (FI) at 10 min” value [18] was 131, the “fluorescent intensity (FI) at 20 min” value [18] was 166 and the “fluorescent intensity (FI) at 30 min” value [18] was 234. The “fluorescent intensity (FI) at 40 min” value [18] was 281, the “fluorescent intensity (FI) at 50 min” value [18] was 355 and the “fluorescent intensity (FI) at 60 min” value [18] was 456. For the same binder, the “fluorescent intensity (FI) at 0 min” value [19] was 77.4, the “fluorescent intensity (FI) at 10 min” value [19] was 91 and the “fluorescent intensity (FI) at 20 min” value [19] was 125. For the same binder, the “fluorescent intensity (FI) at 30 min” value [19] was 151, the “fluorescent intensity (FI) at 40 min” value [19] was 189 and the “fluorescent intensity (FI) at 50 min” value [19] was 238. The “fluorescent intensity (FI) at 60 min” value [19] was 287, the “fluorescent intensity (FI) at 0 min” value [20] was 104 and the “fluorescent intensity (FI) at 10 min” value [20] was 90.1. For the same binder, the “fluorescent intensity (FI) at 20 min” value [20] was 87.6, the “fluorescent intensity (FI) at 30 min” value [20] was 87 and the “fluorescent intensity (FI) at 40 min” value [20] was 91.5. The “fluorescent intensity (FI) at 50 min” value [20] was 94.9, the “fluorescent intensity (FI) at 60 min” value [20] was 86.3 and the “fluorescent intensity … fold” value [1] was 2.4 times. For the same binder, the “fluorescent intensity … fold” value [2] was 1.3 times, the “fluorescent intensity … fold” value [3] was 4.3 times and the “fluorescent intensity … fold” value [4] was 3.7 times. For the same binder, the “fluorescent intensity … fold” value [5] was 0.8 times.
